Test results as given in patent US20240391961A1 (OREGON STATE UNIVERSITY, published 2024).

T1: 14-3-3ζ nhpSer58 with a FLAG tag at its N-terminus (Homo sapiens (Human), UniProt P63104 1-245)
T1 sequence: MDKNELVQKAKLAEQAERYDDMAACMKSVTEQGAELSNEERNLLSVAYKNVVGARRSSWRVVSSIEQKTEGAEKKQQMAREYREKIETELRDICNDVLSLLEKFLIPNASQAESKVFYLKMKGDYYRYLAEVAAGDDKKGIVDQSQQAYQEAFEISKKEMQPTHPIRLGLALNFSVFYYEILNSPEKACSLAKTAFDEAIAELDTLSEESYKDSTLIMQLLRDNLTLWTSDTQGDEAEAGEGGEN


Legend:
[1] = biological target: T1, 14-3-3ζ nhpSer58 with a FLAG tag at its …
SEC-MALS (homodimer) = biological target: the molecule itself; experiment: SEC-MALS (homodimer)
Source text: 14-3-3 dimerization can be regulated by phosphorylation of a serine residue at the dimer interface, e.g., serine residue 58 (Ser58).

| Binder | FC [1] [fold] | binding result (SEC-MALS (homodimer)) |
| --- | --- | --- |
| Transformer-2 protein homolog alpha [OS = Homo sapiens] (other, UniProt Q13595 2-282, looked up) SDVEENNFEGRESRSQSKSPTGTPARVKSESRSGSRSPSRVSKHSESHSRSRSKSRSRSRRHSHRRYTRSRSHSHSHRRRSRSRSYTPEYRRRRSRSHSPMSNRRRHTGSRANPDPNTCLGVFGLSLYTTERDLREVFSRYGPLSGVNVVYDQRTGRSRGFAFVYFERIDDSKEAMERANGMELDGRRIRVDYSITKRAHTPTPGIYMGRPTHSGGGGGGGGGGGGGGGGRRRDSYYDRGYDRGYDRYEDYDYRYRRRSPSPYYSRYRSRSRSRSYSPRRY | 0.0906 |  |
| 14-3-3 protein eta [OS = Homo sapiens] (other, UniProt Q04917 2-246, looked up) GDREQLLQRARLAEQAERYDDMASAMKAVTELNEPLSNEDRNLLSVAYKNVVGARRSSWRVISSIEQKTMADGNEKKLEKVKAYREKIEKELETVCNDVLSLLDKFLIKNCNDFQYESKVFYLKMKGDYYRYLAEVASGEKKNSVVEASEAAYKEAFEISKEQMQPTHPIRLGLALNFSVFYYEIQNAPEQACLLAKQAFDDAIAELDTLNEDSYKDSTLIMQLLRDNLTLWTSDQQDEEAGEGN | 0.0561 |  |
| Cell division cycle 5-like protein [OS = Homo sapiens] (other, UniProt Q99459 1-802, looked up) MPRIMIKGGVWRNTEDEILKAAVMKYGKNQWSRIASLLHRKSAKQCKARWYEWLDPSIKKTEWSREEEEKLLHLAKLMPTQWRTIAPIIGRTAAQCLEHYEFLLDKAAQRDNEEETTDDPRKLKPGEIDPNPETKPARPDPIDMDEDELEMLSEARARLANTQGKKAKRKAREKQLEEARRLAALQKRRELRAAGIEIQKKRKRKRGVDYNAEIPFEKKPALGFYDTSEENYQALDADFRKLRQQDLDGELRSEKEGRDRKKDKQHLKRKKESDLPSAILQTSGVSEFTKKRSKLVLPAPQISDAELQEVVKVGQASEIARQTAEESGITNSASSTLLSEYNVTNNSVALRTPRTPASQDRILQEAQNLMALTNVDTPLKGGLNTPLHESDFSGVTPQRQVVQTPNTVLSTPFRTPSNGAEGLTPRSGTTPKPVINSTPGRTPLRDKLNINPEDGMADYSDPSYVKQMERESREHLRLGLLGLPAPKNDFEIVLPENAEKELEEREIDDTYIEDAADVDARKQAIRDAERVKEMKRMHKAVQKDLPRPSEVNETILRPLNVEPPLTDLQKSEELIKKEMITMLHYDLLHHPYEPSGNKKGKTVGFGTNNSEHITYLEHNPYEKFSKEELKKAQDVLVQEMEVVKQGMSHGELSSEAYNQVWEECYSQVLYLPGQSRYTRANLASKKDRIESLEKRLEINRGHMTTEAKRAAKMEKKMKILLGGYQSRAMGLMKQLNDLWDQIEQAHLELRTFEELKKHEDSAIPRRLECLKEDVQRQQEREKELQHRYADLLLEKETLKSKF | 0.0607 |  |
| Pre-mRNA-splicing factor SLU7 [OS = Homo sapiens] (other, UniProt O95391 2-586, looked up) SATVVDAVNAAPLSGSKEMSLEEPKKMTREDWRKKKELEEQRKLGNAPAEVDEEGKDINPHIPQYISSVPWYIDPSKRPTLKHQRPQPEKQKQFSSSGEWYKRGVKENSIITKYRKGACENCGAMTHKKKDCFERPRRVGAKFTGTNIAPDEHVQPQLMFDYDGKRDRWNGYNPEEHMKIVEEYAKVDLAKRTLKAQKLQEELASGKLVEQANSPKHQWGEEEPNSQMEKDHNSEDEDEDKYADDIDMPGQNFDSKRRITVRNLRIREDIAKYLRNLDPNSAYYDPKTRAMRENPYANAGKNPDEVSYAGDNFVRYTGDTISMAQTQLFAWEAYDKGSEVHLQADPTKLELLYKSFKVKKEDFKEQQKESILEKYGGQEHLDAPPAELLLAQTEDYVEYSRHGTVIKGQERAVACSKYEEDVKIHNHTHIWGSYWKEGRWGYKCCHSFFKYSYCTGEAGKEIVNSEECIINEITGEESVKKPQTLMELHQEKLKEEKKKKKKKKKKHRKSSSDSDDEEKKHEKLKKALNAEEARLLHVKETMQIDERKRPYNSMYETREPTEEEMEAYRMKRQRPDDPMASFLGQ | 0.0628 |  |
| 14-3-3 protein gamma [OS = Homo sapiens] (other, UniProt P61981 1-247, looked up) MVDREQLVQKARLAEQAERYDDMAAAMKNVTELNEPLSNEERNLLSVAYKNVVGARRSSWRVISSIEQKTSADGNEKKIEMVRAYREKIEKELEAVCQDVLSLLDNYLIKNCSETQYESKVFYLKMKGDYYRYLAEVATGEKRATVVESSEKAYSEAHEISKEHMQPTHPIRLGLALNYSVFYYEIQNAPEQACHLAKTAFDDAIAELDTLNEDSYKDSTLIMQLLRDNLTLWTSDQQDDDGGEGNN | 0.0531 |  |
| 14-3-3 protein beta/alpha [OS = Homo sapiens] (other, UniProt P31946 1-246, looked up) MTMDKSELVQKAKLAEQAERYDDMAAAMKAVTEQGHELSNEERNLLSVAYKNVVGARRSSWRVISSIEQKTERNEKKQQMGKEYREKIEAELQDICNDVLELLDKYLIPNATQPESKVFYLKMKGDYFRYLSEVASGDNKQTTVSNSQQAYQEAFEISKKEMQPTHPIRLGLALNFSVFYYEILNSPEKACSLAKTAFDEAIAELDTLNEESYKDSTLIMQLLRDNLTLWTSENQGDEGDAGEGEN | 0.0486 |  |
| Atherin [OS = Homo sapiens] (other, UniProt Q6SPF0 1-538, looked up) MAGPPALPPPETAAAATTAAAASSSAASPHYQEWILDTIDSLRSRKARPDLERICRMVRRRHGPEPERTRAELEKLIQQRAVLRVSYKGSISYRNAARVQPPRRGATPPAPPRAPRGAPAAAAAAAPPPTPAPPPPPAPVAAAAPARAPRAAAAAATAPPSPGPAQPGPRAQRAAPLAAPPPAPAAPPAVAPPAGPRRAPPPAVAAREPPLPPPPQPPAPPQQQQPPPPQPQPPPEGGAVRAGGAARPVSLREVVRYLGGSGGAGGRLTRGRVQGLLEEEAAARGRLERTRLGALALPRGDRPGRAPPAASARPSRSKRGGEERVLEKEEEEDDDEDEDEEDDVSEGSEVPESDRPAGAQHHQLNGERGPQSAKERVKEWTPCGPHQGQDEGRGPAPGSGTRQVFSMAAMNKEGGTASVATGPDSPSPVPLPPGKPALPGADGTPFGCPPGRKEKPSDPVEWTVMDVVEYFTEAGFPEQATAFQEQEIDGKSLLLMQRTDVLTGLSIRLGPALKIYEHHIKVLQQGHFEDDDPDGFLG | 0.0524 |  |
| 14-3-3ζ S58E (other, also called S58E phosphomimetic; 14-3-3ζ with glutamate at residue 58) MDKNELVQKAKLAEQAERYDDMAACMKSVTEQGAELSNEERNLLSVAYKNVVGARRSEWRVVSSIEQKTEGAEKKQQMAREYREKIETELRDICNDVLSLLEKFLIPNASQAESKVFYLKMKGDYYRYLAEVAAGDDKKGIVDQSQQAYQEAFEISKKEMQPTHPIRLGLALNFSVFYYEILNSPEKACSLAKTAFDEAIAELDTLSEESYKDSTLIMQLLRDNLTLWTSDTQGDEAEAGEGGEN |  | binds |
| 2-amino-3-ketobutyrate coenzyme A ligase, mitochondrial [OS = Homo sapiens] (other, UniProt O75600 22-419, looked up) SALAQLRGILEGELEGIRGAGTWKSERVITSRQGPHIRVDGVSGGILNFCANNYLGLSSHPEVIQAGLQALEEFGAGLSSVRFICGTQSIHKNLEAKIARFHQREDAILYPSCYDANAGLFEALLTPEDAVLSDELNHASIIDGIRLCKAHKYRYRHLDMADLEAKLQEAQKHRLRLVATDGAFSMDGDIAPLQEICCLASRYGALVFMDECHATGFLGPTGRGTDELLGVMDQVTIINSTLGKALGGASGGYTTGPGPLVSLLRQRARPYLFSNSLPPAVVGCASKALDLLMGSNTIVQSMAAKTQRFRSKMEAAGFTISGASHPICPVMLGDARLASRMADDMLKRGIFVIGFSYPVVPKGKARIRVQISAVHSEEDIDRCVEAFVEVGRLHGALP | 0.0267 |  |
